Data taken from patent US20210309981, “VARIANT TYPE V CRISPR/CAS EFFECTOR POLYPEPTIDES AND METHODS OF USE THEREOF” (The Regents of the University of California, published 2021).

Target: T1, dCasX (D672A-E769A-D935A) (Deltaproteobacteria, D672A,E769A,D935A)
T1 chain: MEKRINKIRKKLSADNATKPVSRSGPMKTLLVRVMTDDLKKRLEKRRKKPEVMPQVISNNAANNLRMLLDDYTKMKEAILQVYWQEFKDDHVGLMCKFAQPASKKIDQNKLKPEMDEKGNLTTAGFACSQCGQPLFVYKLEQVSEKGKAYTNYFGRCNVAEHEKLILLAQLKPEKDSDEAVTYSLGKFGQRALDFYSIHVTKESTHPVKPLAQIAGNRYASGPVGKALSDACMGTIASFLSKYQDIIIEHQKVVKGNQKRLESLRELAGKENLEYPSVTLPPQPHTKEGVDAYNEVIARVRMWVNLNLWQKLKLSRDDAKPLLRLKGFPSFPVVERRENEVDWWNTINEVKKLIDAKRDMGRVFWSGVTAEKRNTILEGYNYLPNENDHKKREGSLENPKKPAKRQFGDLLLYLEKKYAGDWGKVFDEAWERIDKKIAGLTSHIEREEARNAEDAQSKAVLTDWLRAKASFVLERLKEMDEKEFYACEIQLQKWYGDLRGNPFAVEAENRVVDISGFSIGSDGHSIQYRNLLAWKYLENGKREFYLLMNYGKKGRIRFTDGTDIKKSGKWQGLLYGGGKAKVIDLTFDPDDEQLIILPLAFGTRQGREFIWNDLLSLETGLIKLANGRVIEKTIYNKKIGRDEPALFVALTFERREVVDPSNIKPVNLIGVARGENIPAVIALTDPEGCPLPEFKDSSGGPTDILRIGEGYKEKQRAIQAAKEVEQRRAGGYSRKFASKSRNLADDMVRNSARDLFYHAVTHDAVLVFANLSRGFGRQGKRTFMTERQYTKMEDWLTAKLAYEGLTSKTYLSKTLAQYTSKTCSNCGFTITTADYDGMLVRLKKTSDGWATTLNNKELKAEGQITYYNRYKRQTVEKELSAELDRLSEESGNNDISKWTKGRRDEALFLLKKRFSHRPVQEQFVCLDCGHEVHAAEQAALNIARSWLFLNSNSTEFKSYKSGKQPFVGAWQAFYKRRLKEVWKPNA
Experiment: structure; binary CasX-gRNA complex by SEC and cryo-EM; wild-type vs triple mutant not explicitly stated
Settings: tags: 2CT-10 vector; tag removed by TEV

B1: CasX sgRNA (in vitro transcribed; listed sequence is the DNA transcription template) (ssRNA)
RNA: GGCGCGUUUAUUCCAUUACUUUGGAGCCAGUCCCAGCGACUAUGUCGUAUGGACGAAGCGCUUAUUUAUCGGAGAGAAACCGAUAAGUAAAACGCAUCAAAGUCCUGCAGCAGAAAAUCAAA
B1: binds.
